Where “and” joins values, the source holds several entries; their conditions need not be identical. Equal entries are not always repeated.
What was measured:
[1] = biological target: human CD127 ECD (human) (UniProt P16871); assay: SPR, BIAcore 3000; antibody captured on anti-human IgG (Fc), CD127 ECD 16-512 nM as analyte, 1:1 Langmuir fit
[2] = biological target: IL7R (analyte of the CDRH3 variant assays) (Homo sapiens (Human)) (UniProt P16871); assay: SPR, BIAcore 3000; antibody captured on anti-human IgG (CM5), IL7R 1-64 nM as analyte, 1:1 fit, 25 C
[3] = biological target: IL7R (analyte of the CDRH3 variant assays) (Homo sapiens (Human)) (UniProt P16871); assay: SPR, BIAcore T100; antibody captured on anti-human IgG (CM3), IL-7R 1-256 nM as analyte, 1:1 fit, 25 C
[4] = biological target: IL7R (analyte of the CDRH3 variant assays) (Homo sapiens (Human)) (UniProt P16871); assay: SPR competition, BIAcore; IL7R 64 nM pre-incubated 3 h with antibody 1-256 nM, run over immobilised IL7 (competitor); run 1
[5] = biological target: IL7R (analyte of the CDRH3 variant assays) (Homo sapiens (Human)) (UniProt P16871); assay: SPR competition, BIAcore; IL7R 64 nM pre-incubated 3 h with antibody 0.25-256 nM, run over immobilised IL7 (competitor); run 2
[6] = biological target: human CD127 ECD (human) (UniProt P16871); assay: SPR, BIAcore 3000; antibody captured on anti-human IgG (Fc), CD127 ECD as analyte; the column head says M, but kd/ka gives 1.9e-8 M, so nM is meant
[7] = biological target: human CD127 ECD (human) (UniProt P16871); assay: SPR, BIAcore 3000; antibody captured on anti-human IgG (Fc), CD127 ECD as analyte; the column head says M, but kd/ka gives 2.8e-8 M, so nM is meant
[8] = biological target: human CD127 ECD (human) (UniProt P16871); assay: SPR, BIAcore 3000; antibody captured on anti-human IgG (Fc), CD127 ECD as analyte; the column head says M, but kd/ka gives 1.5e-8 M, so nM is meant
[9] = biological target: human CD127 ECD (human) (UniProt P16871); assay: SPR, BIAcore 3000; antibody captured on anti-human IgG (Fc), CD127 ECD as analyte; the column head says M, but kd/ka gives 1.7e-8 M, so nM is meant

B1: 1A11 H3L6 (antibody, V domains shown)
VH: QVQLVQSGAEVKKPGASVKVSCKASGYTFTGYTMNWVRQAPGQGLEWMGLINPYNGVTSYNQKFKGRVTLTRDTSISTAYMELSRLRSDDTAVYYCARGDGNYWYFDVWGQGTTVTVSS
VL: EIVLTQSPATLSLSPGERATLSCSASSSVTYMHWYQQKPGQAPRPWIYEISKLASGVPARFSGSGSGTDYTLTISSLEPEDFAVYYCQEWNYPYTFGGGTKVEIK
- Kd [1]: 155 nM
- koff [1]: 0.00282 s⁻¹
- kon [1]: 18200 M⁻¹ s⁻¹

B2: 1A11 H3L5 (antibody, V domains shown)
VH: QVQLVQSGAEVKKPGASVKVSCKASGYTFTGYTMNWVRQAPGQGLEWMGLINPYNGVTSYNQKFKGRVTLTRDTSISTAYMELSRLRSDDTAVYYCARGDGNYWYFDVWGQGTTVTVSS
VL: EIVLTQSPATLSLSPGERATLSCSASSSVTYMHWYQQKPGQAPRPWIYEISKLASGIPARFSGSGSGTDYTLTISSLEPEDFAVYYCQEWNYPYTFGGGTKVEIK
- Kd [1]: 207 nM
- koff [1]: 0.00607 s⁻¹
- kon [1]: 29400 M⁻¹ s⁻¹

B3: BPC4402 (antibody, V domains shown)
VH: QVQLVQSGAEVKKPGASVKVSCKASGYTFTGYTMNWVRQAPGQGLEWMGLINPYNGVTSYNQKFKGRVTLTRDTSISTAYMELSRLRSDDTAVYYCARGDGNYWYIDVWGQGTTVTVSS
VL: EIVLTQSPATLSLSPGERATLSCSASSSVTYMHWYQQKPGQAPRPLIYEISKLASGIPARFSGSGSGTDFTLTISSLEPEDFAVYYCQEWNYPYTFGGGTKVEIK
- Kd [2]: 0.668 nM
- koff [2]: 0.0002 s⁻¹
- kon [2]: 300000 M⁻¹ s⁻¹
- Kd [3]: 0.04 nM
- koff [3]: 3.32e-05 s⁻¹
- kon [3]: 826000 M⁻¹ s⁻¹
- IC50 [4]: 15.2 nM

B4: BPC4401 (antibody, V domains shown)
VH: QVQLVQSGAEVKKPGASVKVSCKASGYTFTGYTMNWVRQAPGQGLEWMGLINPYNGVTSYNQKFKGRVTLTRDTSISTAYMELSRLRSDDTAVYYCARGDGNYWYHDVWGQGTTVTVSS
VL: EIVLTQSPATLSLSPGERATLSCSASSSVTYMHWYQQKPGQAPRPLIYEISKLASGIPARFSGSGSGTDFTLTISSLEPEDFAVYYCQEWNYPYTFGGGTKVEIK
- Kd [2]: 0.582 nM
- koff [2]: 0.000196 s⁻¹
- kon [2]: 337000 M⁻¹ s⁻¹
- Kd [3]: 0.034 nM
- koff [3]: 3.06e-05 s⁻¹
- kon [3]: 910000 M⁻¹ s⁻¹
- IC50 [4]: 14.8 nM
- IC50 [5]: 14.9 nM and 15.2 nM

B5: 1A11 Chimera (antibody, human IgG1, V domains shown)
VH: EVQLQQSGPELLKPGASMKISCKASGYSFTGYTMNWVKQSHGKNLEWIGLINPYNGVTSYNQKFKGKATLTVAKSSSTAYMELLSLTSEDSAVYYCARGDGNYWYFDVWGAGTTVTVSS
VL: EIVLTQSPAITAASLGQKVTITCSASSSVTYMHWYQQKSGTSPKPWIYEISKLASGVPVRFSGSGSGTSYSLTISSMEAEDAAIYYCQEWNYPYTFGGGTKLEIK
- Kd [1]: 3.22 nM
- koff [1]: 0.000298 s⁻¹
- kon [1]: 92600 M⁻¹ s⁻¹

B6: 6A3 H4-61_6L27 (antibody, V domains shown)
VH: QVQLQESGPGLVKPSETLSLTCTVSGYSVSTDYAWNWIRQPPGKGLEWIGYIFYSGSTTYTPSLKSRVTISRDTSKNQFSLKLSSVTAADTAVYYCARGGYDVNYFDYWGQGTTVTVSS
VL: DIQMLQSPSSLSASVGDRVTITCLASQTIGYWLAWYQQKPGKAPKLLIYAATRLADGVPSRFSGSGSGTMFTLTISSLQPEDFATYYCQQFFSYPWTFGGGTKVEIK
- Kd [6]: 19 nM
- koff [1]: 0.000299 s⁻¹
- kon [1]: 16000 M⁻¹ s⁻¹

B7: 6A3 H4-61_7L27 (antibody, V domains shown)
VH: QVQLQESGPGLVKPSETLSLTCTVSGYSVTTDYAWNWIRQPPGKGLEWIGYIFYSGSTTYTPSLKSRVTISRDTSKNQFSLKLSSVTAADTAVYYCARGGYDVNYFDYWGQGTTVTVSS
VL: DIQMLQSPSSLSASVGDRVTITCLASQTIGYWLAWYQQKPGKAPKLLIYAATRLADGVPSRFSGSGSGTMFTLTISSLQPEDFATYYCQQFFSYPWTFGGGTKVEIK
- Kd [7]: 28 nM
- koff [1]: 0.00104 s⁻¹
- kon [1]: 37700 M⁻¹ s⁻¹

B8: 6A3 H4-61_8L27 (antibody, V domains shown)
VH: QVQLQESGPGLVKPSETLSLTCTVSGYSVTTDYAWNWIRQPPGKGLEWIGYIFYSGSTTYTPSLKSRITISRDTSKNQFSLKLSSVTAADTAVYYCARGGYDVNYFDYWGQGTTVTVSS
VL: DIQMLQSPSSLSASVGDRVTITCLASQTIGYWLAWYQQKPGKAPKLLIYAATRLADGVPSRFSGSGSGTMFTLTISSLQPEDFATYYCQQFFSYPWTFGGGTKVEIK
- Kd [8]: 15 nM
- koff [1]: 0.00037 s⁻¹
- kon [1]: 24300 M⁻¹ s⁻¹

B9: 6A3 H4-61_9L27 (antibody, V domains shown)
VH: QVQLQESGPGLVKPSETLSLTCTVSGYSVTTDYAWNWIRQPPGKGLEWMGYIFYSGSTTYTPSLKSRITISRDTSKNQFSLKLSSVTAADTAVYYCARGGYDVNYFDYWGQGTTVTVSS
VL: DIQMLQSPSSLSASVGDRVTITCLASQTIGYWLAWYQQKPGKAPKLLIYAATRLADGVPSRFSGSGSGTMFTLTISSLQPEDFATYYCQQFFSYPWTFGGGTKVEIK
- Kd [9]: 18 nM
- koff [1]: 0.00122 s⁻¹
- kon [1]: 69900 M⁻¹ s⁻¹

Reference: patent publication US20110200585A1
